# Measurements taken from IntAct's records for PubMed 23858060.
# B1: Galactose/lactose metabolism regulatory protein GAL80 (Saccharomyces cerevisiae), P04387 (parent)
# chain: MDYNKRSSVSTVPNAAPIRVGFVGLNAAKGWAIKTHYPAILQLSSQFQITALYSPKIETSIATIQRLKLSNATAFPTLESFASSSTIDMIVIAIQVASHYEVVMPLLEFSKNNPNLKYLFVEWALACSLDQAESIYKAAAERGVQTIISLQGRKSPYILRAKELISQGYIGDINSIEIAGNGGWYGYERPVKSPKYIYEIGNGVDLVTTTFGHTIDILQYMTSSYFSRINAMVFNNIPEQELIDERGNRLGQRVPKTVPDHLLFQGTLLNGNVPVSCSFKGGKPTKKFTKNLVIDIHGTKGDLKLEGDAGFAEISNLVLYYSGTRANDFPLANGQQAPLDPGYDAGKEIMEVYHLRNYNAIVGNIHRLYQSISDFHFNTKKIPELPSQFVMQGFDFEGFPTLMDALILHRLIESVYKSNMMGSTLNVSNISHYSL
# partner: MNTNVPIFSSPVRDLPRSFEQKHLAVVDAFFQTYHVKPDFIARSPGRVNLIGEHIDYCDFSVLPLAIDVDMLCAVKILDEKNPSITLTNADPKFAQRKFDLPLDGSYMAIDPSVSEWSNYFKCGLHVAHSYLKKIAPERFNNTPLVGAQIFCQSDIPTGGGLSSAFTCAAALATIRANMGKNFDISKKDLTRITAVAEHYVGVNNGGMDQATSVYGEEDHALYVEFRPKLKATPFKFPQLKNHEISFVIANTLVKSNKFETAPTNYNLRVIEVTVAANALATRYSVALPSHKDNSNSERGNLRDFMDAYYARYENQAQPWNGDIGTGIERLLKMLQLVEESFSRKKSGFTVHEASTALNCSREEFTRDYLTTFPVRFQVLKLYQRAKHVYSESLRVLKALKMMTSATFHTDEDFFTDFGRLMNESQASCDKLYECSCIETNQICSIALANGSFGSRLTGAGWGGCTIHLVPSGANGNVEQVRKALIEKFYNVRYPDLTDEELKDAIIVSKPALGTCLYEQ
# Variants of: B1
# Conditions: with gal3_yeast GAL3, P13045
row,Variant,effect of a mutation on the interaction
1,MDYNKRSSVSTVPNAAPIRVGFVGLNAAKGWAIKTHYPAILQLSSQFQITALYSPKIETSIATIQRLKLSNATAFPTLESFASSSTIDMIVIAIQVASHYEVVMPLLEFSKNNPNLKYLFVEWALACSLDQAESIYKAAAERGVQTIISLQGRKSPYILRAKELISQGYIGDINSIEIAGNGGWYGYERPVKSPKYIYEIGNGVDLVTTTFGHTIDILQYMTSSYFSRINAMVFNNIPEQELIDERGNRLGQRVPKTVPDHLLFQGTLLNGNVPVSCSFKGGKPTKKFTKNLVIDIHGTKGDLKLEGDAGFAEISNLVLYYSGTRANDFPLANGQQAPLDPGYDAGKEIMKVYHLRNYNAIVGNIHRLYQSISDFHFNTKKIPELPSQFVMQGFDFEGFPTLMDALILHRLIESVYKSNMMGSTLNVSNISHYSL [E351K],with no effect
